Laboratory results as given in US20260226185A1 (MAYO FOUNDATION FOR MEDICAL EDUCATION AND RESEARCH, published 2026).

Biological target: T1, human B-cell activating factor receptor (BAFF-R) polypeptide (human, UniProt Q96RJ3 1-184)
T1 sequence: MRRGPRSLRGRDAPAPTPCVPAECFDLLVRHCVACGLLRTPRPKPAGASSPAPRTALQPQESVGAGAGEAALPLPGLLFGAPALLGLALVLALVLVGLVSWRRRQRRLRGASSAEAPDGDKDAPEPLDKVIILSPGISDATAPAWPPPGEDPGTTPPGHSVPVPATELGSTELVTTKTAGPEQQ
Experiment: flow cytometry on BAFF-R expressing 293FT cells vs 293FT cells, R-PE goat anti-mouse IgG detection
Protocol: The lead clone was identified and advanced to purification. […] Following two washes in FACS (PBS with 2% bovine serum albumin), cells were incubated with R-PE conjugated goat anti-mouse IgG for 30 minutes at 4° C. Cells were then washed as before and resuspended in 400 μL FACS for analysis on an Attune flow cytometer (Thermo Fisher). […] Anti-BAFF-R monoclonal antibody development was monitored by R-phycoerythrin conjugated goat anti-mouse IgG (BD Bioscience, San Jose, California).

B1: anti-BAFF-R monoclonal antibody C21 (Clone #1) (antibody, V domains shown)
VH: DVQLVESGGGLVQPGGSRKLSCAASGFTFSSFGMHWVRQAPEKGLEWVAYINSGSSTINYADTVKGRFTISRDNPKNTLFLQMTSLRSEDTAMYYCTIYYYAMDYWGQGTSVTVSS
VL: DIVMSQSPSSLTVSVGEKVSMSCKSSQTLLYSGNQKNYLAWYQQKPGQSPKLLIYWASTRESGVPDRFAGSGSGTDFTLTISSVKAEDLAVYYCQQYYIYPPWTFGGGTKLEIK
notes: Mouse hybridoma antibody, tested as crude supernatant and as purified mAb and detected with R-PE goat anti-mouse IgG; the mouse constant regions and the isotype are not; also called hybridoma clone 21; mAb C21
B1: binds.
